In patent US20150359911, “Aptamer Specific to Integrin alpha-v-beta-3 and Use Thereof” (POSTECH ACADEMY-INDUSTRY FOUNDATION, published 2015):

Tests used:
Settings in all cases: tags: R&D Systems 3050-AV
Integrin alpha-v beta-3 [1] = target: T1, Integrin alpha-v beta-3 (UniProt P06756;P05106 P06756:31-992,P05106:27-718); assay: filter; Bmax 0.82; HEPES, NaCl, KCl, MgCl2 buffer, 37 C
Experimental: (§1) 20,000 cpm of the labeled DNA pool were put in 100 μL 1×SB buffer (200 mM HEPES, 510 mM NaCl, 25 mM KCl, 25 mM MgCl₂), and slowly cooled from 95° C. to 37° C. at a rate of 0.1° C./sec. And, integrin αᵥβ₃ (R&D systems, 3050-AV) was serially diluted to 12 points at 100 nM using buffer (200 mM HEPES, 510 mM NaCl, 25 mM KCl, 25 mM MgCl₂), and then, 30 μL of the above heated and cooled DNA pool was respectively added and reacted at 37° C. for 30 minutes. A nylon membrane (GE healthcare) was spotted with 2 μL of the complex of DNA and integrin αᵥβ₃, and then, 5.5 μL of zorbax resin (Agilent) was added thereto. And, it was put in a Durapore filter (Millipore) previously wetted with 50 μL of 1×SB buffer (200 mM HEPES, 510 mM NaCl, 25 mM KCl, 25 mM MgCl₂) and vacuum was applied. And, the membrane filter was washed with 100 μL of 1× selection buffer (200 mM HEPES, 510 mM NaCl, 25 mM KCl, 25 mM MgCl₂). The filter plate was exposed to an image plate overnight, and then, images were quantified with FLA-5100 (Fuji).
(§2) In order to examine binding affinity of clone having repeatedly observed base sequence, filter binding assay was conducted by the same method as pool binding assay. The binding affinity was calculated using SigmaPlot 11 (Systat Software Inc.) from the value obtained through the filter binding assay, and the results are shown in the following Table 4. […]

Integrin alpha-v beta-3 [2] = target: T1, Integrin alpha-v beta-3; assay: filter; Bmax 0.69; HEPES, NaCl, KCl, MgCl2 buffer, 37 C
Experimental: as §1, §2

Integrin alpha-v beta-3 [3] = target: T1, Integrin alpha-v beta-3; assay: filter; Bmax 0.56; HEPES, NaCl, KCl, MgCl2 buffer, 37 C
Experimental: as §1, §2

Integrin alpha-v beta-3 [4] = target: T1, Integrin alpha-v beta-3; assay: filter; Bmax 0.88; HEPES, NaCl, KCl, MgCl2 buffer, 37 C
Experimental: as §1, §2

T1 sequence (P06756 31-992, chain 1 of 2): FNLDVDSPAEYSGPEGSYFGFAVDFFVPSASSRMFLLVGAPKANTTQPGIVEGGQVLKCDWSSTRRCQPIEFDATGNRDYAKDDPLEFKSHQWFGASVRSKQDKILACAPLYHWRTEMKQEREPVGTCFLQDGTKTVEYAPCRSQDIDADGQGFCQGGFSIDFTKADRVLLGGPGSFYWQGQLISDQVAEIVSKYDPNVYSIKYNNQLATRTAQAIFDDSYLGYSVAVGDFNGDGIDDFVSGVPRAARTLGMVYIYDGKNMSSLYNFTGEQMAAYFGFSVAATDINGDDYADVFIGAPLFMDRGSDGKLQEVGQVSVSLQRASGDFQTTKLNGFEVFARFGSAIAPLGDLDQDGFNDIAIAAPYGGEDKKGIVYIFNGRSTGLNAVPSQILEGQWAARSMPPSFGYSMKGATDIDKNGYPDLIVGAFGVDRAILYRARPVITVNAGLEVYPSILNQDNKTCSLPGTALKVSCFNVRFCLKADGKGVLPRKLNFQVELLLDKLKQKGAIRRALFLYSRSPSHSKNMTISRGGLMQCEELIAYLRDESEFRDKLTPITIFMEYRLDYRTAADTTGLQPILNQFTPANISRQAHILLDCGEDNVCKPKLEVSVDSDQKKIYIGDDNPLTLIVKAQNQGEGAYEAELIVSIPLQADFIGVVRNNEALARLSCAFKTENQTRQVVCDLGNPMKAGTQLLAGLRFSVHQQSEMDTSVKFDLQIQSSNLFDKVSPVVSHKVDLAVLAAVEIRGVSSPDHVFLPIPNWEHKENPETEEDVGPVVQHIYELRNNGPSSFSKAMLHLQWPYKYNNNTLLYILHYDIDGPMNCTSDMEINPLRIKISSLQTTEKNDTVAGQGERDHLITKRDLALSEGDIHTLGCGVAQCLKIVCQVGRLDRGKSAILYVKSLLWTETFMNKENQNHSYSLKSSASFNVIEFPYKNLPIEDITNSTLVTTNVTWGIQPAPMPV
T1 sequence (P05106 27-718, chain 2 of 2): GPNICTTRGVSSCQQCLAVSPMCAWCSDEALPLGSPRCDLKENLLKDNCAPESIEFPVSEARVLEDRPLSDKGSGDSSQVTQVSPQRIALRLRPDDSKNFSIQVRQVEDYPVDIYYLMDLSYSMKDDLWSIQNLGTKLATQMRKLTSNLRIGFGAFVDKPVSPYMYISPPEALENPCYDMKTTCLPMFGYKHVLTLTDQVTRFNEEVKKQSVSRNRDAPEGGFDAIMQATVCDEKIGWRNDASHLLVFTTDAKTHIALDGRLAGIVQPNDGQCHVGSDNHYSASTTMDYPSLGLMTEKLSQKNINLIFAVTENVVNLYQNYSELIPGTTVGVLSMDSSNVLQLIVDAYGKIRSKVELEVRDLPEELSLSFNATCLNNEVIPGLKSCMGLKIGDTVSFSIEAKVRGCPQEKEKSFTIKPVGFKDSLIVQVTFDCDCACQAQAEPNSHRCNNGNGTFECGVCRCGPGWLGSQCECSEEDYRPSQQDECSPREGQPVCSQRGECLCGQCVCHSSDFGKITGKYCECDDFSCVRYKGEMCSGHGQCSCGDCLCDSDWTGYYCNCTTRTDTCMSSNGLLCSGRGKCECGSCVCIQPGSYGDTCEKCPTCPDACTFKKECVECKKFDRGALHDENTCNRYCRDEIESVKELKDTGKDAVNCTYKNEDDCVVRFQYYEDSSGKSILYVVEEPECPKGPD

B1: Clone #25 (S003-A4-025-T7_A04), full length (ssDNA)
DNA: TCAGCCGCCAGCCAGTTCGTTTTAAGAAATTAGCACACCGTTGACTTGTTTAGTGGCGGACCAGAGCACCACAGAG
modifications: n in core = 5-(N-benzylaminocarbonyl)-2'-deoxyuridine (BzdU) [n positions 20,21,22,23,30,31,41,42,46,47,49,50,51,54 = modified dU]
In the case of B1, the Kd (Integrin alpha-v beta-3 [1]) is reported as 17.6 nM.

B2: Clone #12 (S003-A4-012-T7_D02), full length (ssDNA)
DNA: TCAGCCGCCAGCCAGTTCAGTTGCCAATTTGCAGCCTAGGATACGTTTTCGAAACTGCAGACCAGAGCACCACAGAG
modifications: n in core = 5-(N-benzylaminocarbonyl)-2'-deoxyuridine (BzdU) [n positions 21,22,28,29,30,37,42,46,47,48,49,56 = modified dU]
Work on B2 yielded a Kd (Integrin alpha-v beta-3 [2]) of 23.2 nM.

B3: Clone #11 (S003-A4-011-T7_C02), full length (ssDNA)
DNA: TCAGCCGCCAGCCAGTTCTTTTAATCTTCTCTGTCAGATGGCTGGTAGGGTGTATGACGACCAGAGCACCACAGAG
modifications: n in core = 5-(N-benzylaminocarbonyl)-2'-deoxyuridine (BzdU) [n positions 19,20,21,22,25,27,28,30,32,34,39,43,46,51,53,55 = modified dU]
B3 was tested, and the Kd (Integrin alpha-v beta-3 [3]) was 38 nM.

B4: Clone #21 (S003-A4-021-T7_E03), full length (ssDNA)
DNA: TCAGCCGCCAGCCAGTTCCGAGGGAGTTATGGAGATTGTGTTGTTTAAGGTCGGAACTGACCAGAGCACCACAGAG
modifications: n in core = 5-(N-benzylaminocarbonyl)-2'-deoxyuridine (BzdU) [n positions 27,28,30,36,37,39,41,42,44,45,46,51,58 = modified dU]
For B4, the Kd (Integrin alpha-v beta-3 [4]) was 59 nM.
